Results on eight molecules are retold here after article PMC6341108, “Anti-LRP5/6 VHHs promote differentiation of Wnt-hypersensitive intestinal stem cells” (Nature Communications, 2019).

For assay [1], the target named is LRP6 P1E1P2E2 (Homo sapiens) (UniProt O75581). The conditions noted are these: cited from earlier work.
Assay [2] concerns the target LRP6 P3E3P4E4 (Homo sapiens) (UniProt O75581). The conditions noted are these: cited from earlier work.
The target in assay [3] is T1, human LRP6 β-propeller-EGF modules P3E3P4E4 (Homo sapiens).
T1 construct: Low-density lipoprotein receptor-related protein 6 (LRP6), human, domains P3E3P4E4; the methods say Uniprot residues 639-1244, the results say UNIPROT residues 629-1244; Expressed from pUPE107.03 with an N-terminal cystatin secretion signal; also called LRP6^P3E3P4E4; LRP6 P3E3P4E4; source: HEK293 GnTI- cells, transiently co-expressed with human MESD, secreted, purified (Ni-Sepharose excel, SEC …)
T1 chain: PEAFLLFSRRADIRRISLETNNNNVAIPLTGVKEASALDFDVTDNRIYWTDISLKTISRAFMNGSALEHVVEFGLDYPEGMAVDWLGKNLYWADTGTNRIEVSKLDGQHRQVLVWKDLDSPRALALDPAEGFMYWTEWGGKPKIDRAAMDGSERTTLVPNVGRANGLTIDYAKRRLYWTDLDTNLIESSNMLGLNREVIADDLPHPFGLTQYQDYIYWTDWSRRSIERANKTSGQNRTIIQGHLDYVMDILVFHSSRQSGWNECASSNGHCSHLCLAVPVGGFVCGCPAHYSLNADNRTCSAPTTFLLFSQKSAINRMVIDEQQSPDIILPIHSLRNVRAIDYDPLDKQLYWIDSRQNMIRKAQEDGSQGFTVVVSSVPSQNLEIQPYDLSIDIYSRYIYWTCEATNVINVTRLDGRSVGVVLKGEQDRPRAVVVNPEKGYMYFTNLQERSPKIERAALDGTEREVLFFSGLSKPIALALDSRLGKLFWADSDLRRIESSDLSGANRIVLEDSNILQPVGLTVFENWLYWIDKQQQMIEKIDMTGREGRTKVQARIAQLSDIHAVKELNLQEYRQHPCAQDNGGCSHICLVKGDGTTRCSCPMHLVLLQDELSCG
The assay is described as follows: quartz crystal microbalance (QCM); LRP6 P3E3P4E4 immobilised by amine coupling on an Attana LNB chip; VHH injected at four rising concentrations (single cycle kinetics); 22 °C, HBS-T, 25 µL/min; 1:1 fitting model. The conditions noted are these: both partners purified.

Assay [4] deals with T2, human LRP6 β-propeller-EGF modules P3E3P4E4 (Homo sapiens).
T2 construct: low-density lipoprotein receptor-related protein 6 (LRP6), human, domains P3E3P4E4; Cloned with an N-terminal cystatin secretion signal; also called LRP6^P3E3P4E4; LRP6 P3E3P4E4; source: HEK293 GnTI- cells, transiently co-expressed with human MESD, secreted, purified (Ni-Sepharose excel, SEC)
T2 chain: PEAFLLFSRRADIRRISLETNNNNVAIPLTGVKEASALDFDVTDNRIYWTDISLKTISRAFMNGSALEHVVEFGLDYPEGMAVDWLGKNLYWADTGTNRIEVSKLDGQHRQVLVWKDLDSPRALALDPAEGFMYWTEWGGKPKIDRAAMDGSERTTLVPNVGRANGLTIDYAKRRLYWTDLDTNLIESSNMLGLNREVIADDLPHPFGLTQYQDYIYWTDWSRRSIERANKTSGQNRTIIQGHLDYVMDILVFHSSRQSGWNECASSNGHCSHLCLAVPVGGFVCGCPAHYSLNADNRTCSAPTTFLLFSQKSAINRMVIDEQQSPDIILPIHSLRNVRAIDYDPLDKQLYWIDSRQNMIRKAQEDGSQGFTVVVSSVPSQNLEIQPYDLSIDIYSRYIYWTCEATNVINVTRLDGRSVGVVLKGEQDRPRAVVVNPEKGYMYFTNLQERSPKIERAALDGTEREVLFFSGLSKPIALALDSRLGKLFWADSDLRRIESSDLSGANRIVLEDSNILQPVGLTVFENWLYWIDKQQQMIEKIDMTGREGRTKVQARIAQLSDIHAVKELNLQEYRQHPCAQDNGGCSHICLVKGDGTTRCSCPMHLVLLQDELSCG
The assay is described as follows: ITC; 10 µM LRP6 P3E3P4E4 in the sample cell, 100 µM VHH injected, DPBS, 25 °C; triplicate. The conditions noted are these: both partners purified.

The target in assay [5] is T3, human LRP6 β-propeller-EGF modules P3E3P4E4 (Homo sapiens).
T3 chain: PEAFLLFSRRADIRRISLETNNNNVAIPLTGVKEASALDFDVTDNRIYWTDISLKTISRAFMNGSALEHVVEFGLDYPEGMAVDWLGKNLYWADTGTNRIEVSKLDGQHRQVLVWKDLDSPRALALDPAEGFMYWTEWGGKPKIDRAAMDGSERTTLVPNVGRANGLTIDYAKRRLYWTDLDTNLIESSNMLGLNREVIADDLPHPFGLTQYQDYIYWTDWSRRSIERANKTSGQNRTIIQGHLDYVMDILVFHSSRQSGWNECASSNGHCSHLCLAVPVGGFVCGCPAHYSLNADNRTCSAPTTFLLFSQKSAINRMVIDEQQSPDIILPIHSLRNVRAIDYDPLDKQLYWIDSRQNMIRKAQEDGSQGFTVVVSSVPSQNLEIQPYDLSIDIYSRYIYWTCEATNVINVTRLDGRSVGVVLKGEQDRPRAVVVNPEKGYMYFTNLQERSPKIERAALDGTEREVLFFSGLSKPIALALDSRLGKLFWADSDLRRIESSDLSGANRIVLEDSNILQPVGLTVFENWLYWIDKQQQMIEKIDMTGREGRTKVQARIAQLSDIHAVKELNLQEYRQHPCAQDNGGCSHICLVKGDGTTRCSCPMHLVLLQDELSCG
The assay is described as follows: cell-based or functional assay.

Assay [6] concerns the target T3, human LRP6 β-propeller-EGF modules …. The assay is described as follows: quartz crystal microbalance (QCM); LRP6^P3E3P4E4 immobilised by amine coupling on an Attana LNB chip; VHHs injected (0.03-0.25 µg/mL) in HBS-T, single-cycle kinetics, 22 °C, 1:1 fitting model. The conditions noted are these: both partners purified.
The target is the same in assay [7]. The assay is described as follows: ITC; 10 µM LRP6^P3E3P4E4 in the cell, 100 µM VHH injected, DPBS, 25 °C, triplicate. The conditions noted are these: both partners purified.
The target in assay [8] is T4, human LRP6 β-propeller-EGF modules P3E3P4E4 (human, UniProt O75581 639-1244).
T4 chain: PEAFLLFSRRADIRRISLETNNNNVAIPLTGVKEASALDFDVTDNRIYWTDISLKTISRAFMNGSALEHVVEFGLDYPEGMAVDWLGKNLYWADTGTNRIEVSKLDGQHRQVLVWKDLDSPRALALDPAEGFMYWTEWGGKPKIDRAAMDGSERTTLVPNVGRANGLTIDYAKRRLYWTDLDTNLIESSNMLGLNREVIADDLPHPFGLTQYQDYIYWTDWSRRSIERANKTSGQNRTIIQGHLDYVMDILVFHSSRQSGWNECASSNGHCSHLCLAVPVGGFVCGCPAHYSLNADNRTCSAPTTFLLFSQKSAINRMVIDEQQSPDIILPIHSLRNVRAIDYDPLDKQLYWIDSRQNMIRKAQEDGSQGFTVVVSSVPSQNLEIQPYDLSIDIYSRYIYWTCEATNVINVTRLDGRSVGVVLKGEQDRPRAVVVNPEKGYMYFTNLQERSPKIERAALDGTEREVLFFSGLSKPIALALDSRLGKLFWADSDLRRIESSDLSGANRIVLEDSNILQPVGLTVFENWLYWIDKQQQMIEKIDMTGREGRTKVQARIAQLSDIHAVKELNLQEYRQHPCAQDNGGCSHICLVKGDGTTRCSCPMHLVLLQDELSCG
The assay is described as follows: ITC.

Several values for one entry are separate records, joined by “and”; a condition that tells them apart may be missing. Equal values may be shown once. A value given as a limit tells only on which side of the number the result lay.

Sequence of LRP6 P1E1P2E2 (Homo sapiens) (O75581 20-630): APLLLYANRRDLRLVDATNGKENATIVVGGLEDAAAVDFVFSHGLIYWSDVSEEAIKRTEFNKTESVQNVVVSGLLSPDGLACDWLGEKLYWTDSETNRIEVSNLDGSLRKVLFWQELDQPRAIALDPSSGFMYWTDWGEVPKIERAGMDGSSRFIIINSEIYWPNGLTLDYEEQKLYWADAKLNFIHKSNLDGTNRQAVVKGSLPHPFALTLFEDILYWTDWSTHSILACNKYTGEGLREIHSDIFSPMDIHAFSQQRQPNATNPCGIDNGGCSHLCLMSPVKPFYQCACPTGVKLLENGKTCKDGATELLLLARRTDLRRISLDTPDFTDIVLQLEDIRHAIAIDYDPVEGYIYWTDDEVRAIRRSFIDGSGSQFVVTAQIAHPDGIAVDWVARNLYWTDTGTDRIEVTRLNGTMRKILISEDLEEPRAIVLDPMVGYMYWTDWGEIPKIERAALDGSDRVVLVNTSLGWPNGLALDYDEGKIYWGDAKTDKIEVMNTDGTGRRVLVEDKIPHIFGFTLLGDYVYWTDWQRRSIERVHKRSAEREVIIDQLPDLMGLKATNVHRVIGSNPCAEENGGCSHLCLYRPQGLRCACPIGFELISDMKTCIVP
Sequence of LRP6 P3E3P4E4 (Homo sapiens) (O75581 631-1246): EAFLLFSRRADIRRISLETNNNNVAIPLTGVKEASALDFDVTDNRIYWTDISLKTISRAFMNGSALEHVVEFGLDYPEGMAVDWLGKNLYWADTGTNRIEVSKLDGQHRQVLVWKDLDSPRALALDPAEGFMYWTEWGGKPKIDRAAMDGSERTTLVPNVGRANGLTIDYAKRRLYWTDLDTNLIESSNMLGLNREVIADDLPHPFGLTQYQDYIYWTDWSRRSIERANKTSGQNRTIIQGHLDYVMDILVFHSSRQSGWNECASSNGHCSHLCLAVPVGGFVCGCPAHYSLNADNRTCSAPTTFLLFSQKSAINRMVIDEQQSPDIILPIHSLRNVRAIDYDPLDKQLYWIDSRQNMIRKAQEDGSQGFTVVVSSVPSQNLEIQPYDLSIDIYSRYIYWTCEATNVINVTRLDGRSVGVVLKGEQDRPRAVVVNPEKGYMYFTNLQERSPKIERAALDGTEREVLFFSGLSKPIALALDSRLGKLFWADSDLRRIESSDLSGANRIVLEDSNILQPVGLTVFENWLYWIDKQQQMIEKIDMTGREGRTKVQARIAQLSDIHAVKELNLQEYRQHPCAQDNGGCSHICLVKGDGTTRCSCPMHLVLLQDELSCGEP

Turning to DKK1 DKK1_C (from UniProt O94907), the Kd in assay [1] and in assay [2] was 70 nM in each case.

B1: anti-LRP6 VHH L-P2-D07, C-terminal V5-FLAG3-His6-tagged (VHH)
VHH: EVQLQESGGGLVQAGGSLRLSCAASGRTFSIYTIGWFRQAPGKEREFVAEITWSGGSTYYADSVKGRFTISRDNAKNTVYLQMNSLKPEDTAVYYCAAITYTRGIYKYWGQGTQVTVSS
notes: also in the deposited structure of the complex with LRP6 P3E3P4E4; Selected by CIS display from a fully synthetic VHH library; also called L-P2-D07-V5-Flag3-His6; source: E. coli BL21 Gold, purified (IMAC, SEC Superdex 75); not shown: V5, C-terminal, kept; FLAG3, C-terminal, kept; His6, C-terminal, kept
In assay [3], B1 showed a Kd of 0.4 nM, a koff of 0.00015 s⁻¹ and a kon of 370000 M⁻¹ s⁻¹.

B2: anti-LRP6 VHH L-P2-D07 (VHH)
VHH: EVQLQESGGGLVQAGGSLRLSCAASGRTFSIYTIGWFRQAPGKEREFVAEITWSGGSTYYADSVKGRFTISRDNAKNTVYLQMNSLKPEDTAVYYCAAITYTRGIYKYWGQGTQVTVSS
notes: they are in the deposited structure of its complex with LRP6 P3E3P4E4 (PDB 6H15 or 6H16); Selected by CIS display from a fully synthetic VHH library; source: E. coli BL21, purified (IMAC, SEC); not shown: V5, C-terminal, kept; FLAG3, C-terminal, kept; His6, C-terminal, kept
For B2, in assay [4], the Kd is 30.3 nM and 35.7 nM and 29.4 nM; the “stoichiometry N” value was 0.921 and 0.893 and 0.881.

B3: anti-LRP6 VHH L-P2-D07 with C-terminal V5-FLAG3-His6-tag (VHH)
VHH: EVQLQESGGGLVQAGGSLRLSCAASGRTFSIYTIGWFRQAPGKEREFVAEITWSGGSTYYADSVKGRFTISRDNAKNTVYLQMNSLKPEDTAVYYCAAITYTRGIYKYWGQGTQVTVSS
notes: Selected by CIS display from a fully synthetic VHH library; also called anti-LRP6^P3E3P4E4 VHH; anti-LRP5/6^P3 VHH; source: E. coli BL21 (BL21-Gold), purified (IMAC, SEC Superdex 75); not shown: V5, C-terminal, kept; FLAG3, C-terminal, kept; His6, C-terminal, kept
Consider B3, for which, in assay [5], the “IC50 of inhibition of cellular responses to Wnt3a (Wnt luciferase reporter, HEK293T); blocks Wnt3a with LRP6” value was found to be 94 nM; the “IC50 of inhibition of cellular responses to the combination of Wnt3a and R-spondin1 (Wnt luciferase reporter, HEK293T); blocks Wnt3a with LRP6” value turned out to be 40 nM. In assay [6], this molecule returned a koff of around 0.0001 s⁻¹ and an on-rate (kon) of around 100000 M⁻¹ s⁻¹. Further, in assay [7], the Kd is below 40 nM and the “stoichiometry N” value was found to be 1.

B4: anti-LRP6 VHH L-P2-H07, C-terminal V5-FLAG3-His6-tagged (VHH)
VHH: EVQLQESGGGLVQAGGSLRLSCAASGDIISSYRMGWFRQAPGKEREFVSDITPSIGHTYYADSVKGRFTISRDNAKNTVYLQMNSLKPEDTAVYYCRAVDRSYRYPYEYWGQGTQVTVSS
notes: Selected by CIS display from a fully synthetic VHH library; No structure of its complex was deposited; source: E. coli BL21 Gold, purified (IMAC, SEC Superdex 75); not shown: V5, C-terminal, kept; FLAG3, C-terminal, kept; His6, C-terminal, kept
In assay [3], B4 gave a Kd of 2.3 nM, a koff of 0.00018 s⁻¹ and a kon of 81000 M⁻¹ s⁻¹. Moreover, binding in assay [8] was characterised by a dissociation constant (Kd) of 17.5 nM.

B5: anti-LRP6 VHH L-P2-B10 with C-terminal V5-FLAG3-His6-tag (VHH)
VHH: EVQLQESGGCLVQAGGSLRLSCAASGSTFSTYTIGWFRQAPGKEREFVAAIHWDGGQTYYADSVKGRFTISRDNAKNTVYLQMNSLKPEDTAVYYCAARGRRYFDFTYSDVYDYWGQGTQVTVSS
notes: as for B3
In the case of B5, in assay [5], the “IC50 of inhibition of cellular responses to Wnt3a (Wnt luciferase reporter, HEK293T); blocks Wnt3a with LRP6” value turned out to be 82 nM; the “IC50 of inhibition of cellular responses to the combination of Wnt3a and R-spondin1 (Wnt luciferase reporter, HEK293T); blocks Wnt3a with LRP6” value turned out to be 40 nM. In assay [6], the koff was around 0.0001 s⁻¹ and the on-rate constant (kon) was around 100000 M⁻¹ s⁻¹. Further, in assay [7], the dissociation constant Kd was below 40 nM and the “stoichiometry N” value is 1. In addition, in assay [8], the Kd was determined as 12.8 nM.

B6: anti-LRP6 VHH L-P2-B10 (VHH)
VHH: EVQLQESGGCLVQAGGSLRLSCAASGSTFSTYTIGWFRQAPGKEREFVAAIHWDGGQTYYADSVKGRFTISRDNAKNTVYLQMNSLKPEDTAVYYCAARGRRYFDFTYSDVYDYWGQGTQVTVSS
notes: as for B2
As for B6, in assay [4], the Kd was 14.5 nM and 11.9 nM and 12.2 nM; the “stoichiometry N” value is 1.09 and 1.08 and 1.15.

B7: anti-LRP6 VHH L-P2-B10, C-terminal V5-FLAG3-His6-tagged (VHH)
VHH: EVQLQESGGCLVQAGGSLRLSCAASGSTFSTYTIGWFRQAPGKEREFVAAIHWDGGQTYYADSVKGRFTISRDNAKNTVYLQMNSLKPEDTAVYYCAARGRRYFDFTYSDVYDYWGQGTQVTVSS
notes: also in the deposited structure of the complex with LRP6 P3E3P4E4; Selected by CIS display from a fully synthetic VHH library; source: E. coli BL21 Gold, purified (IMAC, SEC Superdex 75); not shown: V5, C-terminal, kept; FLAG3, C-terminal, kept; His6, C-terminal, kept
On to B7, for which, in assay [3], the Kd was found to be 0.8 nM, the koff came out at 0.00014 s⁻¹ and the kon came to 180000 M⁻¹ s⁻¹.
